In experiment [1] the target is TbL5 (Trypanosoma brucei ribosomal protein L5), endogenous (Trypanosoma brucei (endogenous in T. brucei cells)). Put plainly: co-IP; whole-cell extract of 3×Ty-TbL11 T. brucei cells, without RNase A; beads with antibody to the target (anti-P34/P37, anti-TbL5 or anti-TbRpf2); anti-Ty Western blot of pellet and supernatant; amount in the pellet relative to pellet plus supernatant. (In western blotting, separated proteins are transferred to a membrane and probed.)

Experiment [2] addresses TbRpf2 (Trypanosoma brucei homologue of Rpf2), endogenous (Trypanosoma brucei (endogenous in T. brucei cells)). The description is as above.
Experiment [3] has as its target P34 (trypanosome-specific protein), endogenous (Trypanosoma brucei (endogenous in T. brucei cells)). The experiment is described as above.
The target of experiment [4] is P37 (trypanosome-specific protein), endogenous (Trypanosoma brucei (endogenous in T. brucei cells)). Described as above.
Experiment [5] concerns the target TbL5 (Trypanosoma brucei ribosomal protein L5), endogenous (Trypanosoma brucei (endogenous in T. brucei cells)). Briefly: co-IP; whole-cell extract of 3×Ty-TbL11 T. brucei cells, with RNase A added to digest cellular RNA; beads with antibody to the target (anti-P34/P37, anti-TbL5 or anti-TbRpf2); anti-Ty Western blot of pellet and supernatant; amount in the pellet relative to pellet plus supernatant.

The target of experiment [6] is TbRpf2 (Trypanosoma brucei homologue of Rpf2), endogenous (Trypanosoma brucei (endogenous in T. brucei cells)). The description is as above.
In experiment [7] the target is P34 (trypanosome-specific protein), endogenous (Trypanosoma brucei (endogenous in T. brucei cells)). The experiment is described as above.
The target of experiment [8] is P37 (trypanosome-specific protein), endogenous (Trypanosoma brucei (endogenous in T. brucei cells)). The description is as above.
Experiment [9] concerns the target Recombinant P34 (Trypanosoma brucei). Put plainly: co-IP; in vitro, recombinant TbL11 incubated with the recombinant target, without 5S rRNA; precipitated with antibody to the target; anti-His Western blot; amount in the pellet relative to pellet plus supernatant.
Experiment [10] concerns the target Recombinant TbL5 (Trypanosoma brucei). The experiment is described as above.
Experiment [11] has as its target Recombinant TbRpf2 (Trypanosoma brucei). Described as above.
The target of experiment [12] is Recombinant P34 (Trypanosoma brucei). Put plainly: co-IP; in vitro, recombinant TbL11 incubated with the recombinant target, with in vitro-transcribed 5S rRNA added; precipitated with antibody to the target; anti-His Western blot; amount in the pellet relative to pellet plus supernatant.
For experiment [13], the target named is Recombinant TbL5 (Trypanosoma brucei). The experiment is described as above.
Experiment [14] deals with Recombinant TbRpf2 (Trypanosoma brucei). Described as above.

Consider “3×Ty-TbL11 (Ty-tagged Trypanosoma brucei ribosomal protein L11) (natural protein)”, for which the fraction in the pellet (pellet relative to pellet plus supernatant) in [1] was 0.53; in experiment [2] it was 0.07; in [3] it was 0.16; in [4], 0.16; in experiment [5], 0.67; in [6] it was 0.58. The fraction in the pellet (pellet relative to pellet plus supernatant) in experiment [7] and in [8] was 0.53 in each case.
Regarding “Recombinant TbL11 (Trypanosoma brucei ribosomal protein L11) (natural protein)”, the fraction in the pellet (pellet relative to pellet plus supernatant) in [9] was 0.96; in [10] it was 0.92; in experiment [11] it was 0.86; in experiment [12] it was 0.85; in experiment [13], 0.9; in experiment [14] it was 0.83.

(Values after PMC6706469.)
